Here are results for two molecules from CN108503708A.

For assay [1], the target named is hCD47 mutant Q1A (human (homo sapiens)) (UniProt Q08722). Nature of the assay: SPR BIAcore, against natural hCD47 as reference. For orientation: Surface plasmon resonance follows binding to a sensor surface in real time, without labels.
Assay [2] deals with hCD47 mutant E35A (human (homo sapiens)) (UniProt Q08722). Nature of the assay: SPR BIAcore, against natural hCD47 as reference.
Assay [3] concerns the target huCD47-D1-his (recombinant human CD47 extracellular region D1 with C-terminal His tag) (human (homo sapiens)) (UniProt Q08722). As to the kind of experiment: SPR BIAcore, against hS2C3 as reference.
Assay [4] deals with hCD47-mFc (human CD47 extracellular region D1 fused to mouse IgG2a Fc) (human (homo sapiens)). Nature of the assay: competition ELISA by the method of Example 3 (hCD47-mFc coated, hCD172a-D1M1-His as competitor). On the technique in general: An ELISA detects its analyte on a solid surface through an enzyme-linked reagent.
The target is the same in assay [5]. The assay is described as above. The source holds these as a separate data set.
For assay [6], the target named is huCD47-D1-his (recombinant human CD47 extracellular region D1 with C-terminal His tag) (human (homo sapiens)) (UniProt Q08722). Nature of the assay: SPR BIAcore, by the method of Example 3 (antibody captured, huCD47-D1-his analyte).

Where two headings read alike, the source gives them in different places.

As usually defined, the IC50 is the concentration needed to halve the response being measured. The term Kd denotes the constant that tells how readily two partners part at equilibrium. By koff is commonly meant the first-order rate constant of dissociation. The term kon denotes a measure of how fast the partners come together.

B1: H10C7+L26A6 (affinity-matured variant of hS2C3) (antibody, part only; not given: constant regions, V domains shown, part only)
VH: QVQLVQSGAEVKKPGASVKVSCKASGYTFTDYYMHWVRQAPGQRLEWMGWIYPGSGNTRYSQKFKDRVTMTRDTSTSTVYMELSSLRSEDTAVYYCARREEDYFDYWGQGTLVTVSS
In assay [1], B1 had a fold decrease of affinity against natural hCD47 of 100 fold. For the same molecule, the fold increase of affinity against natural hCD47 in assay [2] was 4 fold. Moreover, the fold improvement of affinity over hS2C3 in assay [3] came out at 5 fold. The molecule further yielded an IC50 in assay [4] below 5 nM. In addition, the IC50 in assay [5] worked out at 4.25 nM. Further, in assay [6], the Kd amounted to 2.32 nM, the dissociation rate constant (koff) amounted to 0.00193 s⁻¹ and the kon came to 833000 M⁻¹ s⁻¹.

B2: H11E5+L26A6 (affinity-matured variant of hS2C3) (antibody, part only; not given: constant regions, V domains shown, part only)
VH: QVQLVQSGAEVKKPGASVKVSCKASGYTFTDYYMHWVRQAPGQRLEWMGWIYPSSGNTKYAQKFKDRVTMTRDTSTSTVYMELSSLRSEDTAVYYCARREEDYFDYWGQGTLVTVSS
With B2, in assay [4], the IC50 was below 5 nM. The molecule further yielded an IC50 in assay [5] of 3.52 nM. In assay [6], the Kd turned out to be 1.83 nM, the koff turned out to be 0.0017 s⁻¹ and the kon came to 930000 M⁻¹ s⁻¹.
